Changes are numbered by the printed parent chain.
Columns and labels:
Assay in all cases: Competition binding to HLA class II molecule against reference peptide
Parameters in all cases: species or system Homme
HLA-DRB5 = HLA-DRB5 (Homo sapiens, UniProt P01903+Q30154); conditions: for activité relative (ratio moyenne IC50 peptide testé / moyenne IC50 peptide de référence): lower ratio = better affinity
Source text: (§1) Les tableaux 7 et 8 ci-dessous représentent la concentration en peptide compétiteur (nM) (SEQ ID N°9 ou SEQ ID N°10) pour laquelle 50% de la liaison du peptide de référence aux molécules HLA-DRB1 et aux molécules HLADRB3, -DRB4, -DRB5 et HLA-DP4, est inhibée (IC50).
(§2) Pour chacun des tableaux 7 et 8, les résultats sont issus de deux expériences indépendantes. Tableau 7 :
(§3) Comme pour les résultats présentés ci-dessus, le tableau 8 illustre l'ensemble des valeurs d'IC50 obtenues pour les deux peptides testés et leur peptide de référence comme contrôle interne, pour la liaison aux molécules HLA-DRB3, -DRB4, -DRB5 et aux molécules HLA-DP401 et -DP402. Tableau 8 =:
(§4) Le tableau 9 ci-dessous illustre l'activité relative des deux composés peptidiques SEQ ID N°9 et 10 pour les molécules HLA-DR, HLA-DRB et HLA-DP4 étudiées. L'activité relative est calculée à partir des deux tableaux 7 et 8 ci-dessus de la façon suivante : Ratio = (moyenne des valeurs d'IC50 obtenues pour le peptide testé)/(moyenne des valeurs d'IC50 obtenues avec le peptide de référence). Tableau 9 :
(§5) Dans ce tableau 9, l'activité relative est définie par le ratio obtenu entre la moyenne des IC50 calculée avec le peptide compétiteur et la moyenne des IC50 calculée avec le peptide de référence. L'activité relative permet ainsi de comparer les propriétés de liaison du peptide testé à celle du peptide de référence qui correspond au peptide qui lie de façon la plus efficace une molécule HLA donnée. Ainsi, une activité relative de 2 signifie que le peptide testé lie 2 fois moins efficacement la molécule HLA étudiée que le peptide de référence. Ainsi, plus le ratio est faible, meilleure est l'affinité du peptide pour la molécule HLA considérée.

HLA-DP402 = molecular target: T1, HLA-DP402 (Homo sapiens, UniProt P04440+P20036, A65V/A84D/A85E); conditions: lower ratio = better affinity
T1 sequence (P04440 30-258 A65V/A84D/A85E): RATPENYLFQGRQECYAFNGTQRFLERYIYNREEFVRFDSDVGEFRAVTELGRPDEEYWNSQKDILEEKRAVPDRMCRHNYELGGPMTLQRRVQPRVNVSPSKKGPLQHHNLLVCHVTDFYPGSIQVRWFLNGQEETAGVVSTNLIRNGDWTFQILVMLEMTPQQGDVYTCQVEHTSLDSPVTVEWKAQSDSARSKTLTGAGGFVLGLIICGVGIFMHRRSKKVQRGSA
T1 sequence (P20036 29-260): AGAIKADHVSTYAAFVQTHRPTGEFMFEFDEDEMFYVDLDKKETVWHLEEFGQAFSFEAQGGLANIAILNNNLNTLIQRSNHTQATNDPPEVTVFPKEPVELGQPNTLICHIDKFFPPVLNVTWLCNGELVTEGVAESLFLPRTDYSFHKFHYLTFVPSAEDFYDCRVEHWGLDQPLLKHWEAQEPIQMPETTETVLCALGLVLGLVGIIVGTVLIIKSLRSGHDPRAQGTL
Source text: as §1, §2, §3, §4, §5

HLA-DRB4 = HLA-DRB4 (Homo sapiens, UniProt P01903+P13762); conditions: lower ratio = better affinity
Source text: as §1, §2, §3, §4, §5

HLA-DRB3 = HLA-DRB3 (Homo sapiens, UniProt P01903+P79483); conditions: for activité relative (ratio moyenne IC50 peptide testé / moyenne IC50 peptide de référence): DRB3, lower ratio = better affinity; for affinité de liaison (in words): HLADRB3
Source text: as §1, §2, §3, §4, §5

HLA-DP401 = molecular target: T2, HLA-DP401 (Homo sapiens, UniProt P04440+P20036); conditions: lower ratio = better affinity
T2 sequence (P04440 30-258): T1 sequence (P04440 30-258 A65V/A84D/A85E) with V36A, D55A, E56A
T2 sequence (P20036 32-260 limits assumed): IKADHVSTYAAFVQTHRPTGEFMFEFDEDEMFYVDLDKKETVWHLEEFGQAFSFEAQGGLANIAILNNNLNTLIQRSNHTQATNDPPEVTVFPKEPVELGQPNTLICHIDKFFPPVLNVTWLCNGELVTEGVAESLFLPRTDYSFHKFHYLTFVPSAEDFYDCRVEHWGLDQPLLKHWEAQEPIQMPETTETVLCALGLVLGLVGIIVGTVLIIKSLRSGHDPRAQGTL
Source text: as §1, §2, §3, §4, §5

HLA-DR15 = HLA-DR15 (Homo sapiens, UniProt P01903+P01911); conditions: lower ratio = better affinity
Source text: as §1, §2
(§6) Les valeurs indiquées correspondent aux IC50 obtenus pour chaque peptide étudié.
(§7) Plus la valeur de l'IC50 est faible, meilleure est l'affinité du peptide pour la molécule HLA étudiée. Ainsi, il est important de noter que les peptides de référence n'ont pas tous la même capacité de liaison selon la molécule HLA considérée. Ces valeurs correspondent aux valeurs standards attendues.
as §4, §5

HLA-DR11 = HLA-DR11 (Homo sapiens, UniProt P01903+P01911); conditions: lower ratio = better affinity
Source text: as §1, §2, §6, §7, §4, §5

HLA-DR1 = HLA-DR1 (Homo sapiens, UniProt P01903+P01911); conditions: for activité relative (ratio moyenne IC50 peptide testé / moyenne IC50 peptide de référence): DR1, lower ratio = better affinity
Source text: as §1, §2, §6, §7, §4, §5

HLA-DR7 = HLA-DR7 (Homo sapiens, UniProt P01903+P01911); conditions: for activité relative (ratio moyenne IC50 peptide testé / moyenne IC50 peptide de référence): DR7, lower ratio = better affinity
Source text: as §1, §2, §6, §7, §4, §5

HLA-DR13 = HLA-DR13 (Homo sapiens, UniProt P01903+P01911); conditions: lower ratio = better affinity
Source text: as §1, §2, §6, §7, §4, §5

HLA-DR4 = HLA-DR4 (Homo sapiens, UniProt P01903+P01911); conditions: lower ratio = better affinity
Source text: as §1, §2, §6, §7, §4, §5

HLA-DR3 = HLA-DR3 (Homo sapiens, UniProt P01903+P01911); conditions: for activité relative (ratio moyenne IC50 peptide testé / moyenne IC50 peptide de référence): lower ratio = better affinity; for affinité de liaison (in words): HLA-DR3
Source text: as §1, §2, §6, §7, §4, §5

## EGYFVTDEKTGLVYRDGGVAAASSG (EGYFVTDEKTGLVYRDGGVAAASSG) [SEQ ID N°10]
HLA-DRB5
  activité relative (ratio moyenne IC50 peptide testé / moyenne IC50 peptide de référence): 688
HLA-DP402
  activité relative (ratio moyenne IC50 peptide testé / moyenne IC50 peptide de référence): 2000
HLA-DRB4
  activité relative (ratio moyenne IC50 peptide testé / moyenne IC50 peptide de référence): >9535
HLA-DRB3
  activité relative (ratio moyenne IC50 peptide testé / moyenne IC50 peptide de référence): 5
  affinité de liaison (in words): bonne affinité de liaison
HLA-DP401
  activité relative (ratio moyenne IC50 peptide testé / moyenne IC50 peptide de référence): 5556
HLA-DR15
  activité relative (ratio moyenne IC50 peptide testé / moyenne IC50 peptide de référence): 1
HLA-DR11
  activité relative (ratio moyenne IC50 peptide testé / moyenne IC50 peptide de référence): 3
HLA-DR1
  activité relative (ratio moyenne IC50 peptide testé / moyenne IC50 peptide de référence): 271
HLA-DR7
  activité relative (ratio moyenne IC50 peptide testé / moyenne IC50 peptide de référence): 928
HLA-DR13
  activité relative (ratio moyenne IC50 peptide testé / moyenne IC50 peptide de référence): 18
HLA-DR4
  activité relative (ratio moyenne IC50 peptide testé / moyenne IC50 peptide de référence): 2
HLA-DR3; DR3
  activité relative (ratio moyenne IC50 peptide testé / moyenne IC50 peptide de référence): 0,2
HLA-DR3; DR3, two independent experiments, one line each, read-out: IC50 (concentration en peptide compétiteur pour laquelle 50% de la liaison du peptide de référence est inhibée)
  IC50: 35 nM
HLA-DR3
  affinité de liaison (in words): bonne affinité de liaison

## TNTLAVLQAFGRAIPELGKKW (TNTLAVLQAFGRAIPELGKKW) [SEQ ID N°9]
HLA-DRB5
  affinité de liaison (in words): affinité de liaison élevée
  activité relative (ratio moyenne IC50 peptide testé / moyenne IC50 peptide de référence): 0,9
HLA-DP402
  activité relative (ratio moyenne IC50 peptide testé / moyenne IC50 peptide de référence): >2222
HLA-DRB4
  activité relative (ratio moyenne IC50 peptide testé / moyenne IC50 peptide de référence): 1331
HLA-DRB3
  activité relative (ratio moyenne IC50 peptide testé / moyenne IC50 peptide de référence): >274
  affinité de liaison (in words): n'est pas actif
HLA-DP401
  activité relative (ratio moyenne IC50 peptide testé / moyenne IC50 peptide de référence): >3727
HLA-DR15
  activité relative (ratio moyenne IC50 peptide testé / moyenne IC50 peptide de référence): 5
HLA-DR11
  activité relative (ratio moyenne IC50 peptide testé / moyenne IC50 peptide de référence): 3
HLA-DR1
  activité relative (ratio moyenne IC50 peptide testé / moyenne IC50 peptide de référence): 1
HLA-DR1; HLA-DR1
  affinité de liaison (in words): affinité de liaison élevée
HLA-DR7
  activité relative (ratio moyenne IC50 peptide testé / moyenne IC50 peptide de référence): 3
HLA-DR7; HLA-DR7
  affinité de liaison (in words): affinité de liaison élevée
HLA-DR13
  activité relative (ratio moyenne IC50 peptide testé / moyenne IC50 peptide de référence): 41
HLA-DR4
  activité relative (ratio moyenne IC50 peptide testé / moyenne IC50 peptide de référence): 2
HLA-DR3; DR3
  activité relative (ratio moyenne IC50 peptide testé / moyenne IC50 peptide de référence): >187
HLA-DR3
  affinité de liaison (in words): n'est pas actif
